Test results from patent publication US20250026787A1 (GLO PHARMA, published 2025).
Square brackets hold non-standard residues; d marks the D form. Ends that are not written are not given here.

B1: Melanostatine-5 / Nonapeptide-1 (SEQ ID NO: 1) (peptide)
peptide: MP[dF]R[dW]FKPV
notes: Printed as Met-Pro-D-Phe-Arg-D-Trp-Phe-Lys-Pro-Val; no terminal modification is printed for the control; also called control; positive control
B2: SEQ ID NO: 27 (peptide)
peptide: MVFR[dW]FKPV-NH2
modifications: N-terminus assumed
SMILES: CSCC[C@H](N)C(=O)N[C@H](C(=O)N[C@@H](Cc1ccccc1)C(=O)N[C@@H](CCCNC(=N)N)C(=O)N[C@H](Cc1c[nH]c2ccccc12)C(=O)N[C@@H](Cc1ccccc1)C(=O)N[C@@H](CCCCN)C(=O)N1CCC[C@H]1C(=O)N[C@H](C(N)=O)C(C)C)C(C)C
notes: Printed as Met-Val-Phe-Arg-dTrp-Phe-Lys-Pro-Val-NH2
B3: SEQ ID NO: 11 (peptide)
peptide: AV[dF]R[dW]FKPV-NH2
modifications: N-terminus assumed
SMILES: CC(C)[C@H](NC(=O)[C@@H]1CCCN1C(=O)[C@H](CCCCN)NC(=O)[C@H](Cc1ccccc1)NC(=O)[C@@H](Cc1c[nH]c2ccccc12)NC(=O)[C@H](CCCNC(=N)N)NC(=O)[C@@H](Cc1ccccc1)NC(=O)[C@@H](NC(=O)[C@H](C)N)C(C)C)C(N)=O
notes: Printed as Ala-Val-dPhe-Arg-dTrp-Phe-Lys-Pro-Val-NH2
B4: SEQ ID NO: 16 (peptide)
peptide: FV[dF]R[dW]FKPV-NH2
modifications: N-terminus assumed
SMILES: CC(C)[C@H](NC(=O)[C@@H]1CCCN1C(=O)[C@H](CCCCN)NC(=O)[C@H](Cc1ccccc1)NC(=O)[C@@H](Cc1c[nH]c2ccccc12)NC(=O)[C@H](CCCNC(=N)N)NC(=O)[C@@H](Cc1ccccc1)NC(=O)[C@@H](NC(=O)[C@@H](N)Cc1ccccc1)C(C)C)C(N)=O
notes: Printed as Phe-Val-dPhe-Arg-dTrp-Phe-Lys-Pro-Val-NH2
B5: SEQ ID NO: 25 (peptide)
peptide: EV[dF]R[dW]FKPV-NH2
modifications: N-terminus assumed
SMILES: CC(C)[C@H](NC(=O)[C@@H]1CCCN1C(=O)[C@H](CCCCN)NC(=O)[C@H](Cc1ccccc1)NC(=O)[C@@H](Cc1c[nH]c2ccccc12)NC(=O)[C@H](CCCNC(=N)N)NC(=O)[C@@H](Cc1ccccc1)NC(=O)[C@@H](NC(=O)[C@@H](N)CCC(=O)O)C(C)C)C(N)=O
notes: Printed as Glu-Val-dPhe-Arg-dTrp-Phe-Lys-Pro-Val-NH2
B6: SEQ ID NO: 32 (peptide)
peptide: IFR[dW]FKPV-NH2
modifications: N-terminus assumed
SMILES: CC[C@H](C)[C@H](N)C(=O)N[C@@H](Cc1ccccc1)C(=O)N[C@@H](CCCNC(=N)N)C(=O)N[C@H](Cc1c[nH]c2ccccc12)C(=O)N[C@@H](Cc1ccccc1)C(=O)N[C@@H](CCCCN)C(=O)N1CCC[C@H]1C(=O)N[C@H](C(N)=O)C(C)C
notes: Printed as Ile-Phe-Arg-dTrp-Phe-Lys-Pro-Val-NH2 (8 residues)

biological target: T1, Human recombinant melanocortin MC1 receptor (human, UniProt Q01726 1-317); experiment: radioligand competition, displacement of [125I]NDP-alpha-MSH from human MC1R (CHO-K1), Example 1
T1 construct: whole, on cells; Eurofins Discovery assay Item 251100; a 3 ug aliquot of receptors from CHO-K1 cells was incubated, filtered and washed (probably a membrane preparation); also called Melanocortin 1 Receptor; MCIR
T1 sequence (Q01726 whole entry): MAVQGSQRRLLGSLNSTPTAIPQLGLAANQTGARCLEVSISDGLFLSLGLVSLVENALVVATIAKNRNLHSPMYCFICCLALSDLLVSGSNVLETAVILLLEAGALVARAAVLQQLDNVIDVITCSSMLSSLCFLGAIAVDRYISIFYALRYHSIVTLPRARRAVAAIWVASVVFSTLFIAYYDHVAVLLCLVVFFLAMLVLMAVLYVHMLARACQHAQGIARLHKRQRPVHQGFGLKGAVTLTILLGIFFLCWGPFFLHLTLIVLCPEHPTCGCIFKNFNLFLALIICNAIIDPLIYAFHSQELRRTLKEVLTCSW
Description: (§1) The binding of Group A MCIR peptide antagonists of the disclosure was evaluated in a competition assay (MC1 Human Melanocortin GPCR Binding (Agonist Radioligand) Assay, Item 251100, Eurofins Discovery). Peptides were synthesized by AnaSpec (Fremont, CA). Human recombinant melanocortin MCI receptors were expressed in CHO-K1 cells in modified HEPES-KOH buffer pH 7.0. A 3 μgs aliquot was incubated with 0.04 nM [¹²⁵I]NDP-α-MSH for 120 minutes at 37° C. Non-specific binding was estimated in the presence of 1 μM NDP-α-MSH. Receptors were filtered and washed, and the filters counted to determine [¹²⁵I] NDP-α-MSH specifically bound. Peptide antagonists of the disclosure having amino acid sequences as set forth in SEQ ID NOS: 11, 16, 25, 27, 32, 35, and 40 (each having a C-terminal —NH2) were screened at five concentrations, as well as a positive control, SEQ ID NO: 1 (Melanostatine-5). Inhibition curves were obtained by determining the reduction of bound α-MSH in the presence of an amount of, and/or by increasing amounts of, each peptide antagonist. Non-specific binding of peptide was estimated separately in the presence of a vast excess (1 mM) of unlabeled α-MSH, which occupies all the available receptor binding sites.
Based on the competitive binding curve, the IC₅₀ values were determined (Eurofins or AAT Bioquest IC₅₀ calculator). […]

For B1, the IC50 was 0.12 µM.

biological target: T1, Human recombinant melanocortin MC1 …; experiment: radioligand competition, displacement of [125I]NDP-alpha-MSH from human MC1R (CHO-K1), Example 7
Description: as §1, with “[¹²⁵I]NDP-α-MSH” for “[¹²⁵I] NDP-α-MSH”, “40” for “40 (each having a C-terminal —NH2)”, “concentrations.” for “concentrations, as well as a positive control, SEQ ID NO: 1 (Melanostatine-5).”, “antagonist.” for “antagonist. Non-specific binding of peptide was estimated separately in the presence of a vast excess (1 mM) of unlabeled α-MSH, which occupies all the available receptor binding sites.”

First: B2
Second: B1
The IC50 of the first is higher: over 0.5 µM for the first, under 0.2 µM for the second.

First: B3
Second: B4
The IC50 of the first is higher: 0.2 to 0.5 µM for the first, under 0.2 µM for the second. The second is the more potent here.

Compared with B5, B6 is lower in IC50: over 0.5 µM for the first, under 0.2 µM for the second. The second is the more potent here.
